Assay results published in the nanobody polyreactivity screen of Harvey et al. (2022).

Assay: yeast display, Sf9 membrane polyspecificity reagent, FACS + sequencing; frameworks hold sequencing errors
In short: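 A synthetic nanobody library was expressed on Saccharomyces cerevisiae BJ5465 by galactose induction for 36–48 hours. The library was stained for 1 hour at 4 °C with 10% biotinylated, detergent-solubilized Sf9 membrane reagent and enriched with streptavidin microbeads before FACS. Low and high (top ~1%) gates were set on anti-HA fluorescence for expression and streptavidin fluorescence for reagent binding, and each polyreactivity label reflects the gate of origin.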

| Sequence | polyreactivity (PSR sort gate) |
| --- | --- |
| QVQLVESGGGLVQAGGSLRLSCAASGGTFNQYAMGWYRQAPGKEREFVASISRRGGSTYYADSVKGRFTISRDNAKNTVYLQMNSLKPEDTAVYYCAADAFFRLDYYYWGQGTQVTVSS | high polyreactivity |
| QVQLVESGGGLVQAGGSLRLSCAASGSTFRYYAMGWYRQAPGKERELVAAITWSGGRTTYADSVKGRFTISRDNAKNTVYLQMNSLKPEDTAVYYCAAEWHYFVTMYYWGQGTQVTVSS | low polyreactivity |
| QLQLVESGGGLVQAGGSLRLSCAASGSIFPDYAMGWYRPAPAKERELVAAITWRDDSTYYADSVKGRFTISRDNAKNTVYLQMNSLKPEDTAVYYCNASALDPLYAKDDYWGQGTQVTVSS | low polyreactivity |
| QVQVVESWGGLVQEAGSLRLSCAASGRTFAHYNMGSYRQAPGKERELVARIDWSCGNTYYADSVKGRFTISRDNAKITVFLQMNRLKPQDTAVYYCAAVPAFYNAWGEDYEYWGQGTHVTVSS | low polyreactivity |
| QVQLVESGGGLVQAGGSLRLSCAASGRTFLRYAMGWYREAPGKERELVAAITYGGRTNFADSVKGRFTISRDNAKNTVYFQMNSLKPEDTAVYYCAADRTYYYGLRVDYWGQGTQVTVSS | high polyreactivity |
| QVQLVESGGGLVQAGGSLRLSCAASGSTFLYNTMGWYRPAPGKERELVAAITSAGSTNYADSVKGRFTISRDNAKNTVYLQMNSLKPEDTAVYYCAAVGPTSGARYTYDYWGQGTQVTVSS | low polyreactivity |
| QVQLVESGGGLVQAGGSLRLSCAASGRTFTPNGMGWYRQAPGKERELVAAITYGGGITDYADSVKGRFTTSRDNAKNTVYLQMNSLKPEDTAVYYCAATTLSFEGGKYWSKYDYWGQGTQVTVSS | low polyreactivity |
| QVQLVESGGGLVQAGGSLRLSCAASGFTFAGYAMGWSRQAPGKERELVAGIRSSGARTYYADSVKGRFTISRDNAKNTVYLQMNSLKPEDTAVDYCAKTDGFYRGYGYWGQGTQVTVSS | low polyreactivity |
| QVQLVESGGGLVQAGGSLRLSCAASGITFKRYAMGWYRPAPGKERELVAAITISAGSTYYADSVKGRFTLSRDNAKNTVYLQMNSLKPEDTAVYYCAAESYGSWYYYWGQGTQVTVSS | high polyreactivity |
| QVQLVESGGGLVQAGGSLRLSCAASGSIFDGYALGWYRQAPGKEREFVAAIDTGDTRTYYADSVKGRFTISRDNAKNTVYLQMNSLKPEDTAVYYCNADDWAYGMDYWGQGTQVTVSS | low polyreactivity |
| QVQLVESGGGLVPAGGSLRLSCAASGRTFWIYAMGWYRQAPGKERELVASIRWSTGNTNYADSVKGRFTISRDNAKNTVYLQMNSLLPEDTAVYYCNARRRWRGGPTYIYWGQGTQVTVSS | high polyreactivity |
| QVHLVESGGGLVQAGGSLRLSCAASGSIIKYYAIGWYRQAPGKERELVAAISWRGGRTYADSVKGRFTISRDNAKNTVYIQMNSLKPEDTAVYYCATSSRYRYWHRYDYWGQGTQVTVSS | high polyreactivity |
| QVQLVESGGGLVQAGGSLRLSCAASVRTSGRYAMGWYRQAPGKERELVAAISWSGGSTYYADSVQGRFTSSRDNAKNTVYLQMNSLKPEDTAVYYCNAQHALGYYYWGQGTQVTVSS | low polyreactivity |
| QVQLVESGGGLVQAGGSLRLSCAASGSIITPNAMGWYRQAPGQERELVAAISSGGSTNYADSVKGRITISRDNAKNTVYFQLTCLKPEDTAVYYCAKSIDGWYWRRRRYDYWGQGTQVTVSS | low polyreactivity |
| QFQLVESGGGLVQAGGSLRLSCAASGIILRGYAMGWYRQAPGKERELVASISRGGSTNYADSVKGRFTISRDNAKNTVYLQMNSLKPEDTAVYYSNARIWYYGRYQGAYRFDYWGQGTQVTVSS | high polyreactivity |
| QVQLVESGGGLVQAGGSLRLSCAASGSTFRTYVMGWYRQAPGKERELVAAITRSGVSTSYADSVKGRFTISRDNAKNTVYLQMNSLKPEDTAVYYCAATKYDDGYSWTHYYYWGQGTQVTVSS | high polyreactivity |
| QFQLVESGGGLVQAGGSHRLSCAASGFIFYYYAMGSYRQAPGKERELVAVLTESGSSTYYADSVKGRFTFSRDNAKNTVYLQMNSLKPVDTAVYYCNADFWPYTGKYDYWGQGTQVTVSS | low polyreactivity |
| QVQLVESGGGLVQAGGSLRLSCAASGRTFQTNVMGWYRQAPGEERELVAAITLSGGSTNYADSVKGRFSISRDNAMYTVYLQMNSLKPEDTAVYYCNAERRYRHQWTPHYEYDYWGQGTQVTVSS | low polyreactivity |
| QVQLVESGGGLVQAGGSLRLSCAASGSIFYIYAMGWYRQAPGKERELVAGIRNGGSTKYADSVKGRFTISRDNAKNTVYLQMNSLKPEDTAVYYCAARYYRPYTSSWAHNYRLDDWGQGSQVTVSS | high polyreactivity |
| QVQLVESGGGLVQAGGSLRISCAASGFIFTYYAMGWYRQAPGKERELVAAITKSGTSTYYADSVKGRFTISRDNAKNTVYLQMNSLKPEDTAVYYCNAVLWWDWEYDFYYWGQGTQVTVSS | high polyreactivity |
| QVQLVESGGGLVQAGGSLRLSCAASGSIFLENTMGWYRQAPGKERELVAAITSSGDSTYADSVKGRFTISRDNAKNTVYLQMNSLKPEDTAVYYCAQYTRDIFAVTFYEGEDYWGQGTQVTVSS | low polyreactivity |
| QVQLVESAGGIVQAGGSLRLRCAASGRTVVNSMGWYRQAPGKERELVAAISTNGGRTYYADSVKWRFTISRDNAKNTVYLQMNSLKPEDTAVYYCAKVLGIRPTYYYWGQGYQVTVSS | high polyreactivity |

| Sequence | polyreactivity (PSR sort gate) |
| --- | --- |
| QVQLVESGGGLVQAGGSLRLICAASGRTFGVNAMGWYRQAPGKERELVASIRWNGGSTYYADSVKGRFTISRDNAKNTVYLQMNSLKPEDTAVYYCNAVRRYRSREFDYWGQGTQVTVSS | low polyreactivity |
| QVQLVESGGGLVQAGGSLRLSCAASGIIFSWYAMGWYRQAPGKERELVASITASGGSTYYADSVKGRFTISRDTAKNTVSFQMHSLKPEDTAVYYCAVRYGHRSFASVYVEYDYWGQGTQVTVSS | low polyreactivity |
| QVQHVESGGGLVQAGGSLRLSCAASGYTFRSNTMGWYRQAPGKERELVAAISGRGSSTYYADSVKGRFTISRDNAKNTVYLQMNSLKPEDTAVYYCAAQSKYYQYYSWGQGTQVTVSS | high polyreactivity |
| QVQLVESGGGLVQAGGSLRLSCAASGRTFRAYAMGWYRQAPGKERELVAAISGTGDRTYYADSVKGRFTISRDYAKNTVYLQMNSLKPEDTAVYYCAVSYSYRYYYWGQGTQVTVSS | high polyreactivity |
| QVQLVESGGGLVQAGGSLRLSCAASGSTFGRYAMGWYRQAPGKERELVAAITRGGSTNYADSVKGRFTISRDNAKNTVYLPMNSLKPEDTAVYYCAADKPGIFSRFDYWGQGTQVTVSS | low polyreactivity |
| QVQLVESGGGLVQAGGSLRVSSAASGRIFYLYVMAWYRQAPGKERELVAGITGSGGNTYYADSVKGRCTISRDNAKNTVDLQMNSLKPEDTAVYFCNDRFRARPRMGYWGQATQVTVSS | high polyreactivity |
| QVQLQESGGGLVQAGGSLRLSCAASGTIFRFRYMGWHRQAPGKERELVAGINGGTTTYYADSVIGRFTISRDNAKNTVYLHMNCLKPDDTAVYNCAAGASRLTYYDYWGQGTQVTVSS | low polyreactivity |
| QVQLVESGGGLVQAGGSLRLSCAASGITFARYAMGWYRQAPGKERELVAAISRNAGRTYYADSVKGRFTISRDNAKNTVYLQMNSLKPEDTAVYYCAAVTKSSVPGSRYDYWGQGTQVTVSS | high polyreactivity |
| QFQLVDSGGGLVQAGGSLRLSCAPSGRIFQIYAMGWYRQAPGKERELVAAISGSTSYADSVKGRFTISRDNAKNTVYLQMISLKPEDTAVYYCAARALLPYGEYWGQGSQVTVSS | low polyreactivity |
| QVQRVESGGGLVQAGGSLRLSCAASGSIFGYYAMGWSRQAPVKERELVAAITRSCGSTYYADSVKGRFTISRDNAKTTVYLQMNSLKPEDTAVYYCNAVRYAVRLPAFPGYDYLGQGTQVTVSS | high polyreactivity |
| QVQLVESGGGLVQAGGSLRLSCAASGFTFRRYTMGWYRQAPGKERELVAAISGSGGSTYYADSVKGRFTISRDNAKNTVYLQMNSLKPEDTAVYYCNAPYLHYVIVFTDYSQRYDYWGQGTQVTVSS | high polyreactivity |
| QVQLVESGGGLVQAGGSLRLSCAASGGIFKYNAMGWYRTAPGKERELVAAIRSSGSTNYADSVKGRFTISRDNAKNTVYLQMNSLKPEETAVYYCNVAYGLQPYDYWGQGTQVNVSS | high polyreactivity |
| QVQLVESGGGLVQAGGSLRLSCAASGGTCSKYAMGWYRQARGKEREFVAAITVSGGGTYYADSVKGRFTISRDNAKNTVYLQMNSLKTEDTAVYYCAADLAWTASDYWGQGTQVTLSS | low polyreactivity |
| QVQLVESGGGLVQAGGSLRLSCAASGFIFVSYAMGWYRQAPGKERELVAAIDRIGGITYYADSVKGRFTIARDIAKNTVYLQMNSLKPEDTAVYYCAAAARYATVRVGREYYWGQGTQVTVSS | low polyreactivity |
| QVQLVESGGGLVQAGGSLRLSCAASGRTFYDYAMGWYRQAPGKESEFVAAITDRDASTSYADSVKGRFTISRDNAKNTVYLQMNSLKPEDTAVYYCAADQYWYKPYVGELYDYDYWGQGTQVTVSS | low polyreactivity |
| QVQLVESGGGLVQAGGSLRLSCAASGSIFVTNAMGWYRQAPGKERELVAAISGGADSTYADSVKGRFTISRDNAKNTVYFQMNSLKPEDTAVYYCAAKVRGWHYYYWGQGTQVTVSS | low polyreactivity |
| QVQLVESGGGLVQAGGSLRLSCAASGSTFLYNAMGWYRQAPWKERELVAAISWSGGSTYYADSVKGRFTISRDNAKNTVYLQMNSLKPEDTAVYYCAAEQRRFTGYDYWGQGTQVTVSS | high polyreactivity |
| QVQLVESGGGLVQAGGSLRLSCAASGFIFGRNAMGWYRQAPGKERELVAGISSSGVRTFYADSVKGRFTISRDNAKNTVYLQMNSLKPEDTAVYYCATRGRVYPTKYSLDEDYWGQGTQVTVSS | high polyreactivity |
| QVQLVESGGGLVQAGGSLRLSCSASGRTFYGNAMGWYRQAPGKERELVAAISWSGGSTYYADSVKGRFPISRDNAKNTVYLQMISLKPEYTAVYYCNADYFAWDLMYYWGQGTQVTVSS | low polyreactivity |
| QVQLVESGGGLVQAGGSLRLSCAASGSIFRTNAMGWYRQAPGKERELVAAITGRGGSTYYADSVKGRFTISRNNAKNTVYLQMNSLKPEDTAVYDCAADTWYGYRYKYDYWGQGTQVTVSS | high polyreactivity |
| QVQLVESGGGLVQAGGSLRLSCAASGLIFHQYAMGWYRQAPGKERELVAAITRSGTRTYYADSVKGRFTISRDNAKNTVYLQMNSLKPEDTAVYYCAAGDTQGVSMDYWGQGTQVNVSS | high polyreactivity |
